The source of these data is a protein production outcome set (Wang et al. 2014).

The series is described as follows: label from the status in PepcDB records.

Take “MTTIRVENLSKIFKKGKTEVKAVDNVSITIDSGMAFGVLGPSGHGKTTFLRLIAGLEEPTSGYIYFDNEAVSSPRRVMMSPEKRGIAMVFQNWALYPNMTVFDNIAFPLKLAKVPKDKIENKVKEVSEELGLSGVLNRYPKELSGGQMQRTAIARALVKDPKVLLLDEPFSNLDAQIRESARALVRKIQRERKLTTLIVSHDPADIFAIANKAGVIVNGKFAQIGTPTEIYEYPATDLIARLTGEINLIQAKIIENNAIIANLKVPLNNMELKGQSNIVIGLRPDDLTLSDTLLDKYIDMGIVKVKLVSYGAGIFKIVVSPITDENIDIIVDAEEPLETGIETHLLAKPNKVKIFDLNGSNLITSKTQIIK”: the protein production entry is given as “failed”.

With “MTTIVPTSEENPFLAVVRFTSQLAWADAGPEAAEPEITRLCREAEESMVAEKWLELSSLMVTSAELVSSKISEKDLECTYTIICSIVKNAKSPEQVLEMVKAIASKVAQQPSDKASLRLKILFNLYNLVDHPYARFQVYMKALTLAVDGKVTEYIVSSFKKIDNFLKEWNIDIKDQRELFLAIANVLKENKSLVNESLKFLTKYLATFSNEDAQVLDEAKEEAVRAVIEFVKASSIFQCDLLDLPAVAQLEKDAKYAPVYQLLKIFLTQRLNAYTEFQNANSGFLQSYGLSNEDCVTKMRLLSLVDLASDESGKIPYTSIKDTLQVNEQDVELWIVKAITAKLIESALPNVNLGQSNGNLSEQSLRLGSIITTIESNKVTEEGSQASSSSAAAIQGLSVR”, the protein production result is “failed”. On to “MTTKLDPEALNVSEEARERGTGYLNVALFGVDSRDNELEKDTRSDTIMIASLNRETMEVKISSVYRDTLLEQSDGTLNKANAAYSFGGPETAVAMLNKNLDMDIEHYVTVNFNSLIDVIDAVGGVEIDVQEEEIPYICGYAMEIMRVTGRESAGVTEPGVQTLNGIQATAYARIRYTAGDDFKRAERQRDVLTKIVGKLQGASLAQINKIIDKVFPEVSTNFTLAEILEYAKDAFDYKLGETIGFPFDKTTDTLANIGSVVIPVTLDKNVEQLHKFFYGEGDTYSPSSTVNTISGKIVAKAGDRQADTDEDSQGIMQQPDESYTGGGSSGGTKTPSSGGTSGGSSQPTPTPTPTPTPTPEPDPQPQPDPGGDDGSGGSGGDTSGGGAEGTPDAGTQLEHHHHHH”, for which the protein production entry was “failed”. In the case of “MTTLGIVSDTHGYFHPNLADDLSGVDRILHAGDVGDPAILDGLEAVAPVTAVWGNIDDASLRRRLAEHERFTVAGLDVWMTHIAGRPGRWQDGMGTKLEATPPDVLVCGHSHILQVERVAALDDMLYVNPGAAGKQGFHQTKTCLRLAVEDGRATEAAVVHLDPDASPAQAPDP”, the protein production result was “failed”. Regarding “MTTLTAQQIACVYAWLAQLFSRELDDEQLTQIASAQMAEWFSLLKNEPPLTAAVNELENRIATLTVRDDARLELAADFCGLFLMTDKQAALPYASAYKQDEQEIKRLLVEAGMETSGNFNEPADHLAIYLELLSHLHFSLGEGTVPARRIDSLRQKTLTALWQWLPEFVARCRQYDSFGFYAALSQLLLVLVECDHQNR”, the protein production result was “failed”. On to “MTTNPYTGEREAGKSAIGAGLGSLVGAGIGALSSSKKDRGKGALIGAAAGAALGGGVGYYMDVQEANVRDKMRGTGVSVTRSGDNIILNMPNNVTFDSSSATLKPAGANTLTGVAMVLKEYPKTAVNVIGYTDSTGGHDLNMRLSQQRADSVASALITQGVDASRIRTQGLGPANPIASNSTAEGKAQNRRVEITLSPLLEHHHHHH”, for which the protein production result is on record as “not failed”. For “MTTNRYMKGIMWAMLASTLWGVSGTVMQFVSQNQAIPADWFLSVRTLSAGIILLAIGFVQQGTKIFKVFRSWASVGQLVAYATVGLMANMYTFYISIERGTAAAATILQYLSPLFIVLGTLLFKRELPLRTDLIAFAVSLLGVFLAITKGNIHELAIPMDALVWGILSGVTAALYVVLPRKIVAENSPVVILGWGTLIAGILFNLYHPIWIGAPKITPTLVTSIGAIVLIGTIFAFLSLLHSLQYAPSAVVSIVDAVQPVVTFVLSIIFLGLQVTWVEILGSLLVIVAIYILQQYRSDPASD”, the protein production result is given as “failed”. As to “MTTPEGGARKPRIGIMGEFSAGKSTLSNLLLGQRILPEQVTATRLPPVWIVQGDKPAQRAALDGSLHPMSLVDLEEISLEETLYVKIGIDAPVLDECDLIDFPGISDPNMPSEVWERMLAEVDSVLWCTHATQAWRQSEAAAWGMVPEAVRQRSLLLITRFDKLTTPLDKLRVQTRVARETEGLFAGVCPISLTEALAAAPDSPEWEASGAETFADALEAVVRAAACGGLPEAMPAQTQLTAPAAPEPAEPSTSAPQPAPGRVMPRRVRPKGETRTPRPSARPQAADQDLSALRREMQET”, the protein production result is given as “failed”. “MTTPGKLNKARVPPYKTAGLGLVLVFALVVALVYLQFRGEFTPKTQLTMLSARAGLVMDPGSKVTYNGVEIGRVDTISEVTRDGESAAKFILDVDPRYIHLIPANVNADIKATTVFGGKYVSLTTPKNPTKRRITPKDVIDVRSVTTEINTLFQTLTSIAEKVDPVKLNLTLSAAAEALTGLGDKFGESIVNANTVLDDLNSRMPQSRHDIQQLAALGDVYADAAPDLFDFLDSSVTTARTINAQQAELDSALLAAAGFGNTTADVFDRGGPYLQRGVADLVPTATLLDTYSPELFCTIRNFYDADPLAKAAAGGGNGYSLRTNSEILSGIGISLLSPLALATNGAAIGIGLVAGLIASPLAVAANLAGALPGIVGGAPNPYTYPENLPRVNARGGPGGAPGCWQPITRDLWPAPYLVMDTGASLAPYNHMEVGSPYAVEYVWGRQVGDNTINP”: the protein production result is on record as “failed”. “MTTRRLPRPCRFNPTIHVVLAVLALLLSGLAAFADLPALTGRVVDDAGIIDAGTRAALTQKLADFEKKGSDQIVVATIPSLGGEEIEPYANRLFRFWKLGQAGENNGVLLLVAKNDHKMRIEVGYGLEGTLTDLHTKLIIENDMVPAFRAGDFSGGISKAVDDMVMVLEGNPEELEARGKRNPADSSTPIDPIVTVFLILWATMFFGGLAMAFLPPMFGTKLSPGVYRWLGMTFRYGKGPSGSSGGSGWTTGSSGGGWSSGSSSSGWSSGSSSSGGGFSGGGGSSGGGGSSGSW”: the protein production result was “failed”.

For “MTTRTRNLYILMLANLLMSASMTMIMPFLSLYIETFGDYSNAYVQRWAGYIFGVTFLIAFIFSPIWGRIGDKHGYKGILILTSVGLSICIFLMGFAHSVTYLLILRIFMGVVTGFIGVSNAFIARQTPRNEAGKVLGTLQLGGVTGMLFGPLIGGAMADLFGFKDTFTITGIAMMVAALIVAFGVKEIRTEEQKEAAKVVYSRRAVLKQIFTLRVLFTVMVITALIQIANFSVQPLLALYVGDMTQSDNIAFLSGLAFSATGFGNLVMTRKWGQLGDKYGYEKILNILLIMAAVFVIPQAFATNLWVFIFFRFLFGIAIGGMVPCTTAYIRLAAPGVMQGEMLGYNQSARFLGNVIGPILGGTLAGFTGIPSVFLFMSFMFLVAFFILLYALRSDRKRHVNVD”, the protein production entry is “failed”.

“MTTSATSGTGPTANSMRRALKRARDGVALDVTEAAVLLQARGEDLDDLTASAARVRDAGLEAAGRAGVITYSKSVFIPLTRLCRDKCHYCTFVTVPGKLRRAGHGMFMSPDEVLDIARKGAALGCKEALITLGDKPEDRWPEAREWLDAHGYDDTIAYVRAISIRILEETGLLPHLNPGVMSWTDFQRLKPVAPSMGMMLETTATRLWSEPGGPHHGSPDKEPAVRLRVLEDAGRSSVPFTSGILIGIGETYEERAESLFALRKISRAYHGIQELIIQNFRAKPDTAMRGMPDAELDELIATVAVARHIMGPRACLQAPPNLVDSEYGRLIGAGIDDWGGVSPLTIDHVNPERPWPQIDLLREQSAQAGFELRERLCVYPEFVQRGEPWLDPRLLPHVRALADPASGLAHADATVEGHPWQEPEEAFVAQGRTDLHHSIDTEGRTGDRRDDFDVVYGDWEALREAAAPGMVPERIDTDVRQALATAANDPTRLTDAEALALLHADGPALDALTRIADDVRKAAVGDDVTYIVTRNINFTNVCYTGCRFCAFAQRRTDADAYTLSLEQVADRAQQAWDVGAVEVCMQGGIHPDLPGTAYFDIAKAVKERVPGMHVHAFSPMEVVNGATRTGLSIREWLTAAKEAGLDSIPGTAAEILDDEVRWVLTKGKLPTATWIEVITTAHELGIRSSSTMMYGHVDQPRHWLGHFRTLARIQQQTGGFTEFVTLPFIHTNAPVYLAGIARPGPTTRDNRAVMAMARLLLHPHIPNIQTSWVKLGTEGAAEMLRSGANDLGGTLMEETISRMAGSSYGSYKSVKDLIAVAEAAGRPAKPRTTLYGEVPQERQRAAAASDGHLPELLPVLD”: the protein production entry is reported as “failed”. Consider “MTTTLTILTPTYNRAYILPKLYASLVEQTNKHFDWMVVDDGSTDNTEQLISEFIADGKINIVYIKQKNGGKHRALNTGAQSINSDYIFIVDSDDYLTNDAIDIILENSHYLKEKNLMGMTLLRGYAPDKVIGEKYPEDFMIKNFNQVRYNMGIKGDKAEVVSTKIFRETPFPEIPGERFMSEGVAWKQLAHKGDSLFINKIVYITEYLEDGLTHSGRLLLIKNPLGAMLNAKLAMTKEFSFKIREKNSLLYIAYGFFAKKKVREIITESGQRKLVRVNLLFGWMI”, for which the protein production entry is “failed”. As to “MTTTPTTPATPTTPNAPTPDVTITVIVYNDAERLPRAVASLLRQTHPAIEIIISDDHSTDATPSVARELEASDPRIRYLRLPENSGGCSAPRNRALEIARAPYLMFLDSDDELPENAVALLLAAHREREVDFAMGAVERIRVDTGHRSTWMAHLVDERRTVDGIEAEPGLLFEHLATSKMYTRDFLDRHALRFPEGIHYEDQLFSAQAYCLAKSFTVIPQPVYRWYIAPYVAQDAASISNQRHKLSNVSDRIHVQTLIDDFLAESGHESLRQDKDYKFLKHDFRMYAGDLPYRDEDWLTGFARIVTPYLETLSPGAYALLPRAERVVLQLVRDGRLSEAQLAARGLGHSVAPRETTADDSGCLYWGPRLPSSDWARRELDVTELGLDSRPFPSAQFRHEITSVTPGRGMTVDLTIRTYDPGLRLPVGPQRASVVVAPGRRRLMVPFRLDPVRPGVFEGRVRVDLAAAPLPVQGFDGVRHPLLRLEQQGLANTGVLLAPLTFPTLRATRPGSLRHEVTVEPEGKAAGRLQIRWRPVGVTARVAGPVARKVAGPRVRRAARLVRSALR”, the protein production entry is reported as “failed”. Consider “MTTVDSPRDANGPPRFAASGFATPRRPDDTDDTGDADETAATVPHRTRALTTPPRRKTIAAPCIDARTRRDRPARRATHARRALADFRAPAPPVARGTTRNRARRYACPSVDAVARTAPSPHAHRAAPARRPPSSEGAIMSEAVRMERDTFGEIAVPAARLWGAQTQRSLQNFKISTEKQSPELIHALALIKRAAAAVNLELGVLAQDKANAIVAAADEIIAGRHADEFPLAVWQTGSGTQTNMNLNEVIANRASELLGGERGESRAVHPNDDVNRGQSSNDVFPTAMHIAAARAIVDHLLPALRTLRATLDAKAAAFADIVKIGRTHLQDATPLTLGQEFSGYVAQLDQGIRHVEAALPHLYELAQGGTAVGTGLNAHPKFAAGVAAEIGRLTGLPFVSAPNKFEVMAAADALVFAHGALKTVAASLMKIANDIRWLASGPRCGLGELSIPENEPGSSIMPGKVNPTQSEAVTMLCCQVFGNDVAVNFGGASGNFELNVFRPMIAHNVLQSVRLLADGAQGFNDHCAVGIEPNRARIDALLNESLMLVTALNPHIGYDKAAQIAKKAHKEGTTLKAAALALGYVTDAQFDEWVRPEHMVGNR”, for which the protein production entry is “not failed”.

With “MTTVSPDDSSPSTLTSLTFDDLTPGQSASLSRTLTQADLDLFATVSGNIDPSHFADPPAGTTLFPKAIGHGMWSASLISGVLGTRLPGPGTVYLAQDLRFRAPVTLGDTITASVTVREKRTERKTVVFECLCTNQNGVTVVSGTAEVIAPATHASVAAQALPGLQMIRHDRQAALLARCAGLPALPTAVIHPCDGPALQGAVEAAQRGLIEPILVGPSLLIAATAKALGLDISAFRLVEAANGAAAAATGVALVRAGEARAVMKGALHTDELMAAVVKRDGGLRTAGRISHVFLMTVPTYPKPLLITDAVVNIAPSLEDKVHIVQNAIDLARILGVETPKVAILSAVETINPKISSTVDAAALCKMAQRGQIRGGLLDGPLAFDNAISAEAAKTKGIVSEVAGQADILLVPDLESGNMLAKQLSFLAHADAAGIVLGTSAPVMLTSRADNLAARLASCALAVLIDAASRPRSTVLAAE”, the protein production result was “failed”.
